Assay results as given in patent US8030017B2, “Thermostable luciferases and methods of production” (Promega Corporation, priority 1997, dated 2011).

What was measured:
[1] = Stability of luciferase activity in cell lysates at room temperature (with Triton X-100); format: physicochemical; conditions: over 5 hours at room temperature
Procedure: Although the luminescence activity of LucPpl within colonies of E. coli appeared to be thermostable to above 60° C., in lysates these luciferases had relatively low stability. They were particularly unstable in the presence of Triton X-100 detergent. When lysates are prepared containing the commonly used firefly luciferase, the enzyme retains greater than 90% activity over 5 hours at room temperature. In contrast, the activity of the LucPpl luciferases would decrease several fold over the same period.
The thermostability of the mutant luciferases in cell lysates was compared at room temperature (FIG. 63). Dilute lysates were buffered at pH 7.5 and contained 1% Triton X-100; typical conditions for lysates of mammalian cells.

[2] = Luminescence signal intensity and signal stability in vitro of LucPpl luciferases; format: biochemical; conditions: lysate with 1% Triton X-100
Description: For luminescence assays requiring only a few second, the wild-type yellow-green-emitting luciferase produces a very stable signal (the initial rise in the signal evident in the first 2 seconds is due to the response time of the luminometer, not the kinetics of the luminescence reaction). However, the signal intensity was reduced about 30% by the presence of 1% Triton X-100 in the lysate (diluted 1:5 with the addition of assay reagent). In contrast, the luminescence intensity of the mutant luciferases was unaffected by the presence of Triton X-100. […] However, the data are not corrected for the efficiency of enzyme expression in E. coli. Thus, differences in luminescence intensity may not correlate to changes in enzyme specific activity, nor is the expression efficiency in E. coli necessarily relevant to expression in mammalian cells.
For batches of assays requiring more than an hour to process, the signal stability of the yellow-green-emitting luciferase is inadequate under the conditions tested. […] Attempts to correct this by the in vitro evolution yielded mixed results. The signal stability of all three mutant enzymes was generally much improved over the parent yellow-green enzyme for three hours after substrate addition. However, this was accompanied by a greater initial decrease in luminescence during the first half-hour. […]

[3] = test system: colonies of E. coli; test: Luminescence of E. coli colonies expressing LucPpl luciferases at room temperature and on heating; format: cell-based; conditions: room temperature
Procedure: From colonies of E. coli expressing the luciferases, Luc81-5F01 and Luc81-6G01 produced luminescence most rapidly at room temperature upon addition of luciferin. The luminescence was more rapid and brighter than colonies expressing the wild-type green- and yellow-green-emitting luciferases. The luminescence from all the selected colonies appeared green-shifted compared to the yellow-green parent clone. […] Some of the mutant clones loose their luminescence at 65° C., but the three preferred clones remain bright above 70° C. No spectral changes upon heating the colonies were evident until above 70° C., where those clones still retaining activity began to red-shift slightly (sometime, the initial phases of enzyme denaturation are accompanied by a red shift in the luminescence). The luminescence characteristics of the three preferred mutants are quite similar.

[4] = Robotic thermostability screen of LucPpl mutants: decrease of activity over 10 hours at screening temperature; format: physicochemical; conditions: 47° C., third cycle of random mutagenesis
Procedure: “Enzyme stability” was determined by the rate of activity loss from cell lysates over 10 hours. In successive rounds of evolution the incubation temperature of the lysates was increased.
To prepare luciferases having certain performance, a method for in vitro evolution of enzyme function, as described above, was employed. Briefly described, the method is a recursive process of generating random mutations and screening for desirable properties. It was originally developed primarily to increase the thermostability of luciferases, although other enzymological characteristics are also subject to optimization by the screening criteria. A slightly different strategy was used to achieve the properties described above since two related luciferases needed to be optimized concomitantly.
The luciferases from P. plagiophthalamus have 13 cysteines, which are potentially sensitive to oxidation. This is in contrast to the commonly used firefly luciferase, which has only 4 cysteines. To remove any cysteines that may limit enzyme stability, oligonucleotide-directed mutagenesis was used to randomize the cysteine codons. Three sets of oligonucleotides were used: non-conserved cysteines in regions of low sequence homology (positions 69, 114, 160, 194, 335, and 460), non-conserved cysteines in regions of higher sequence homology (positions 127, 213, 310, and 311), and highly conserved cysteines (positions 60, 80, and 388). […]
The random mutagenesis process was repeated using the best clone from the previous cycle of mutagenesis (Luc53-0G01). […] The discrepancy in measured activity of Luc53-0G01 in this cycle of mutagenesis compared to the previous cycle may be due to changes in the assay procedure and recalibration of the incubator temperature. It should be noted that the recorded thermostabilities from each stage of mutagenesis are calculated from robotic data using abbreviated assay procedures. The data are intended to indicate the relative stabilities of enzyme mutants when assayed in the same screen, rather than providing an accurate quantitation of thermostability.

firefly luciferase: the commonly used firefly luciferase
activity retained in lysates [1]: greater than 90%

B1: Luc81-6G01: LucPplYG mutant luciferase, SEQ ID NO:26 (protein)
chain: MMKREKNVIYGPEPLHPLEDLTAGEMLFRALRKHSHLPQALVDVVGDESLSYKEFFEATVLLAQSLHNCGYKMNDVVSICAENNTRFFIPVIAAWYIGMIVAPVNESYIPDELCKVMGISKPQIVFTTKNILNKVLEVQSRTNFIKRIIILDTVENIHGCESLPNGISRYSDGNIANFKPLHFDPVEQVAAILCSSGTTGLPKGVMQTHQNICVRLIHALDPRAGTQLIPGVTVLVYLPFFHAFGFSITLGYFMVGLRVIMFRRFDQEAFLKAIQDYEVRSVINVPSVILFLSKSPLVDKYDLSSLRELCCGAAPLAKEVAEVAAKRLNLPGIRCGFGLTESTSANIHSLRDEFKSGSLGRVTPLMAAKIADRETGKALGPNQVGELCIKGPMVSKGYVNNVEATKEAIDDDGWLHSGDFGYYDEDEHFYVVDRYKELIKYKGSQVAPAELEEILLKNPCIRDVAVVGIPDLEAGELPSAFVVKQPGKEITAKEVYDYLAERVSHTKYLRGGVRFVDSIPRNVTGKITRKELLKQLLEKAGG
modifications: Mutant luciferase
stability of luminescence signal in assays of a few seconds [2]: most stable signal | onset of luminescence in E. coli colonies upon addition of luciferin [3]: most rapidly | decrease of activity [4]: 100 fold
